According to US20250041455A1 (Regeneron, published 2025):

B1: 12799B scFv (VH-VK) (scFv)
chain: QITLKESGPTLVKPTQTLTLTCTFSGFSLSTSGVGVVWIRQPPGKALEWLALIYWNDHKRYSPSLGSRLTITKDTSKNQVVLTMTNMDPVDTATYYCAHYSGSYSYYYYGLDVWGQGTTVTVSSDIQMTQSPSSVSASVGDRVTITCRASQGIASWLAWYQQKPGKAPELLIYAASSLQGGVPSRFSGSGSGTDFTLTISSLQPEDFAIYYCQQANYFPWTFGQGTKVEIK
B2: 12798B scFv (VH-VK) (scFv)
chain: EVQLVESGGDLVQPGRSLRLSCAASGFTFDDYAMHWVRQAPGKGLEWVSGISWNSATRVYADSVKGRFTISRDNAKNFLYLQMNSLRSEDTALYHCAKDMDISLGYYGLDVWGQGTTVTVSSEIVMTQSPATLSVSPGERATLSCRASQTVSSNLAWYQQKPGQAPRLLIYGSSSRATGIPARFSGSGSGTEFTLTISSLQSEDFAVYYCQQYNNWPPYTFGQGTKLEIK
B3: 12802B scFv (VH-VK) (scFv)
chain: QVQLVESGGGLVKPGGSLRLSCAASGFTFSDYFMSWIRQAPGKGLEWVSYISSTGSTINYADSVKGRFTISRDNVKNSLYLQMTSLRVEDTAVYYCTRDNWNYEYWGQGTLVTVSSEIVMTQSPATLSVSPGERATLSCRASQSVSINLAWYQQKPGQAPRLLIFVASTRATGIPARFSGSGSGTEFTLTISSLQSEDFATYYCQQYDIWPYTFGQGTKLEIK
B4: 69307 scFv (VH-VK) (scFv)
chain: EVQLVESGGGLVQPGGSLRLSCTASGFTFSNYWMTWVRQAPGKGLEWVANIKEDGSEKEYVDSVKGRFTISRDNAKNSLYLQMNSLRGEDTAVYYCARDGEQLVDYYYYYVMDVWGQGTTVTVSSDIQMTQSPSSVSASVGDRVTITCRASQGISSWLAWYQQKPGKAPKLLIYAASSLQSGVPSRFSGSGSGTDFTLTISSLQPEDFATYYCQKADSLPYAFGQGTKLEIK
B5: 12812B scFv (VH-VK) (scFv)
chain: QVQLVQSGAEVKKPGSSVRVSCKASRGTFSSYAISWVRQAPGQGLEWMGGIIPIFGTANYAQKFLARVTITADESTSTAYMELSSLRSEDTAVYYCAREKGWNYFDYWGQGTLVTVSSDIQMTQSPPSVSASVGDRVTITCRASQGISSWLAWYQQKPGKAPKLLIYAASSLQSGVPSRFSGSGSGTDFTLTISSLQPEDFATYYCQQANSFPRTFGQGTKVEIK

molecular target: T1, hmm.hTfRC (REGN2431) (human, UniProt P02786 89-760); assay: blocking ELISA; Hmm-hTFRC + supernatant on plate-bound holo-Tf
T1 construct: also called hmm.hTfR(C89-F763); His-myc-myc-hTFRC ecto
T1 sequence (P02786 other isoform, or with tags, fused parts or gaps): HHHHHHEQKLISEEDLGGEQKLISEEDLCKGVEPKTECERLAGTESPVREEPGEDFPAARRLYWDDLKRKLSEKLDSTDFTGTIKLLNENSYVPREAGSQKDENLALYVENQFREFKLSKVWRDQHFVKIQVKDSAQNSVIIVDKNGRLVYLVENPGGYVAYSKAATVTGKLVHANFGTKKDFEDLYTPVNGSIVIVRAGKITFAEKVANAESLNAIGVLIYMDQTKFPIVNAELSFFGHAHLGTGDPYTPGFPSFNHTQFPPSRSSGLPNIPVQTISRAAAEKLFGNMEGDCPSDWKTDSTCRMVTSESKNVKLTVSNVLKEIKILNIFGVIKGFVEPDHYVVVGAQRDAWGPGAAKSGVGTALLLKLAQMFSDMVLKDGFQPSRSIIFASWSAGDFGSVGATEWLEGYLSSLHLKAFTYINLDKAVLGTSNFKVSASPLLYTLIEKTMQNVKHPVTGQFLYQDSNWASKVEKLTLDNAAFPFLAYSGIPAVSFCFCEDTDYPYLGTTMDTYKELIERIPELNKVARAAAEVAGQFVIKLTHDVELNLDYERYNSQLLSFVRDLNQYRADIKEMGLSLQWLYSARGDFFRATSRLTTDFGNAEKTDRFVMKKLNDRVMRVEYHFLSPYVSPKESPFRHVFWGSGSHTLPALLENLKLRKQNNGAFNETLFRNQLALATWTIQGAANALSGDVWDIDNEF

Going from B1 to B2, the “% Blocking” value falls from 26% to 0%.

First: B3
Second: B4
The “% Blocking” value of the first is higher: 11% for the first, 9% for the second.

In the case of B5, the “% Blocking” value is reported as 19%.
